Experimental data from patent US20220267407A1 (published 2022).

Tests used:
[1] = biological target: T1, EBNA3C (EBV) peptide on HLA-B*44:02 (human); assay: cytokine release
T1 peptide: SERLVPEESY

[2] = biological target: T2, EBNA3C (EBV) peptide on HLA-B*44:02 (human); assay: cytokine release
T2 peptide: WLLTSPSQSW

[3] = biological target: T3, EBNA3C (EBV) peptide on HLA-B*44:02 (human); assay: cytokine release
T3 peptide: LLTSPSQSW

[4] = biological target: T4, EBNA3C (EBV) peptide on HLA-B*44:02 (human); assay: half-maximum IFN-gamma release; peptide titration on K562-HLA-B*44:02, ELISA after 24 h, E:T 1:1; full-length, on cells
T4 peptide: AEGGVGWRHW

[5] = biological target: T5, LMP2A (EBV) peptide on HLA-A*02:01 (human); assay: cytokine release
T5 peptide: MCLGGLLTMV

[6] = biological target: T6, LMP2A (EBV) peptide on HLA-A*02:01 (human); assay: half-maximum IFN-gamma release; peptide titration on K562-HLA-A*02:01, ELISA after 24 h, E:T 1:1; full-length, on cells
T6 peptide: CLGGLLTMV

[7] = biological target: T6, LMP2A (EBV) peptide on HLA-A*02:01; assay: the description's statement of this TCR's peptide sensitivity; K562-HLA-A*02:01 loaded with peptide, E:T 1:1; full-length, on cells
[8] = biological target: T7, LMP1 (EBV) peptide on HLA-C*15:02 (human); assay: cytokine release
T7 peptide: NSNEGRHHL

[9] = biological target: T8, LMP1 (EBV) peptide on HLA-C*15:02 (human); assay: cytokine release
T8 peptide: DSLPHPQQA

[10] = biological target: T9, LMP1 (EBV) peptide on HLA-C*15:02 (human); assay: cytokine release
T9 peptide: YLQQNWWTL

[11] = biological target: T10, LMP1 (EBV) peptide on HLA-C*15:02 (human); assay: half-maximum IFN-gamma release; peptide titration on K562-HLA-C*15:02, ELISA after 24 h, E:T 1:1; full-length, on cells
T10 peptide: QQNWWTLLV

B1: TCR25 (TCR, V domains shown)
Valpha: AQSVTQLDSHVSVSEGTPVLLRCNYSSSYSPSLFWYVQHPNKGLQLLLKYTSAATLVKGINGFEAEFKKSETSFHLTKPSAHMSDAAEYFCVAWDTGFQKLVFGTGTRLLVSP
Vbeta: EPEVTQTPSHQVTQMGQEVILRCVPISNHLYFYWYRQILGQKVEFLVSFYNNEISEKSEIFDDQFSVERPDGSNFTLKIRSTKLEDSAMYFCASKALADTQYFGPGTRLTVL
[1]
  binding result: no recognition
[2]
  binding result: no recognition
[3]
  binding result: no recognition
[4]
  EC50 of peptide: 600 nM

B2: TCR06 (TCR, V domains shown)
Valpha: KQEVTQIPAALSVPEGENLVLNCSFTDSAIYNLQWFRQDPGKGLTSLLLIQSSQREQTSGRLNASLDKSSGRSTLYIAASQPGDSATYLCAVLMDSNYQLIWGAGTKLIIKP
Vbeta: DAGITQSPRYKITETGRQVTLMCHQTWSHSYMFWYRQDLGHGLRLIYYSAAADITDKGEVPDGYVVSRSKTENFPLTLESATRSQTSVYFCASSEDGMNTEAFFGQGTRLTVV
[5]
  binding result: recognises
[6]
  EC50 of peptide: 6 nM
[7]
  EC50 of peptide: ≤ 10 nM

B3: TCR83 (TCR, V domains shown)
Valpha: GQNIDQPTEMTATEGAIVQINCTYQTSGFNGLFWYQQHAGEAPTFLSYNVLDGLEEKGRFSSFLSRSKGYSYLLLKELQMKDSASYLCAAVNNAGNMLTFGGGTRLMVKP
Vbeta: DTAVSQTPKYLVTQMGNDKSIKCEQNLGHDTMYWYKQDSKKFLKIMFSYNNKELIINETVPNRFSPKSPDKAHLNLHINSLELGDSAVYFCASSQGYGGPSTDTQYFGPGTRLTVL
[8]
  binding result: no recognition
[9]
  binding result: no recognition
[10]
  binding result: no recognition
[11]
  EC50 of peptide: 2 nM
